In US11733246B2, “Compositions, imaging, and therapeutic methods targeting folate receptor 1 (FOLR1)” (Indi Molecular, Inc., priority 2020, dated 2023):
“And” between values parts separate entries of the source, which are not always exact repeats. Equal entries are not always repeated. Numbered stars: 1 amine (or outer) side, 2 acyl side, 3 side chain; on linkers, the order of the positions; unused ones are H or OH. Bridge positions count the residues as written; N and C are the ends. Square brackets hold non-standard residues; d marks the D form. Triazole bridges read from a SMILES are 1,4-linked. Peptide text beside a SMILES is read from it. * marks the point of attachment. DOTA = O=C(O)CN1CCN(CC(=O)O)CCN(CC(=O)*)CCN(CC(=O)O)CC1; Pteroyl = Nc1nc2ncc(CNc3ccc(C(=O)*)cc3)nc2c(=O)[nH]1; Butanoyl(4-(4-MePh)) = Cc1ccc(CCCC(=O)*)cc1; Lys(N3) = [N-]=[N+]=NCCCC[C@H](N)C(=O)O; γGlu = O=C(O)[C@H](CCC(=O)[*:2])N[*:1]; AEEEA = NCCOCCOCCOCC(=O)O; Pra = C#CC[C@H](N)C(=O)O

Experiments:
[1] = test system: OVCAR3 FOLR1+ cells; assay: Flow cytometry binding to FOLR1 (+) cells; assay type: cell-based, human; conditions: 40 nM of the test article
[2] = test system: OVCAR3 FOLR1+ cells; assay: Flow cytometry binding to FOLR1 (+) cells; assay type: cell-based, human; conditions: OVCAR3 vs PC-3, flow cytometry
Protocol: Both the kyeet (SEQ ID NO:9) and hshta (SEQ ID NO:6)-derived biligands were tested by flow cytometry for binding to FOLR1 (+) and FOLR1 (−) cell lines (FIGS. 6 and 7). The human ovarian adenocarcinoma-derived cell line OVCAR3 has robust FOLR1 expression and was selected as the FOLR1 (+) cell line. The human prostate adenocarcinoma-derived cell line PC-3 was selected as a FOLR1 (−) cell line.
Competition at the cellular level was also probed.
Increasing the serum-bound fraction of the peptide may decrease first pass removal of the heterobiligand, and drive compound retention of tumor over kidney. Constructs bearing the known albumin binder 4-methylphenyl butyric acid (4-MPBA) were synthesized. These compounds were evaluated in vitro to verify binding fidelity to FOLR1. The modified heterobiligands were incubated at 400 nM with OVCAR3 and PC-3 cells for 20 minutes at 37° C. in complete media containing 20% FBS. They both bind to OVCAR3 FOLR1+ cells with similar binding affinities as the original heterobiligand studied (FIG. 14). […] Similar activity of these heterobiligands is anticipated in vivo.

[3] = in vivo; conditions: female, NSG, mouse, iv, total radioactivity
Protocol: (§1) Female, 7-week-old NSG mice were housed under pathogen-free conditions. Water and food were provided ad libitum. To create mice with FOLR1+ ovarian xenograft tumors, mice were injected subcutaneously with OVCAR3 cells (1×10^7 cells per mouse) resuspended in 50% Matrigel in PBS into the shoulder region. Tumor growth was monitored by caliper measurements. OVCAR3 is a human ovarian adenocarcinoma known to over-express FOLR1.
(§2) ^68Ga PET imaging was used to study in vivo biodistribution of heterobiligands in non-tumor bearing (healthy) mice and OVCAR3 tumor bearing mice. 100-200 μCi of [^68Ga]DOTA-labeled heterobiligand was administered intravenously (i.v.) via the tail vein of each mouse. Dynamic PET imaging was performed from 0-1 h, followed by acquisition of static PET images at 2 h and 4 h post-injection. CT scans were acquired for anatomical reference. Imaging was performed on an Inveon microPET/CT small animal scanner. The PET signal was quantitated by three-dimensional ROI analysis and represented as percent injected dose (% ID) vs. time ([…]) for major organs including tumor, liver, heart, lung, bladder, and kidney.
(§3) Evaluation of a folate-hshta (SEQ ID NO:6) Nterm heterobiligand bearing both an albumin binder and DOTA chelator in PET was a priority, given that DOTA can accommodate both ^68Ga for imaging and ^177Lu for radiotherapy. A 200 μCi dose of ^68Ga-labeled folate-hshta-PEG3-Lys(MPBA)-Lys(DOTA) (SEQ ID NO:6) (compound #2809) was injected i.v. via tail vein in an NSG mouse bearing s.c. human OVCAR3 (FOLR1+) tumor. ^68Ga PET/CT imaging scans were performed at 0-1 h (dynamic), 2 h (static), and 4 h (static). […] The time-course biodistribution of ^68Ga-labeled folate-hshta-PEG3-Lys(MPBA)-Lys(DOTA) (SEQ ID NO:6) (compound #2809) was calculated to quantify the uptake in major organs including the tumor (FIG. 17). […] Larger tumors (490 mm^3) were also evaluated with the ^68Ga-chelated PET probe.
(§4) Images were captured for compound #1307 at the time points 5 min, 10 min, 15 min, 30 min, 1 h, 2 h, and 4 h. PET/CT images were taken following the injection of 4 female NSG mice with ^68Ga-chelated compound #2809. […] Images for mouse 4 are shown in FIG. 23 (Compounds #1307 and #2809) and FIG. 24 (Compound #1307).
(§5) Biodistribution was initially evaluated by PET imaging, as the time frame for a significant portion of clearance is roughly similar to the time frame of PET imaging experiments. Indi ^68Ga-7327 was injected via the tail vein into OVCAR3 (FOLR+) tumor implanted female NSG mice once the tumor size reached 200 mm^3, and microPET/CT scans were acquired at 5 min, 10 min, 15 min, 30 min, 1 h, 2 h, and 4 h post-injection. PET images were corrected for CT-based photon attenuation, detector normalization and radioisotope decay and converted to units of percent injected dose per cc (% ID/cc).

[4] = test system: OVCAR3 (FOLR1+) tumor bearing NSG mice; assay: in vivo; conditions: mouse
Protocol: as §1, §2, §3, §4, §5

[5] = biological target: human serum albumin (Homo sapiens, UniProt P02768); conditions: read-out: affinity for human serum albumin; cited from earlier work
[6] = test system: OVCAR3 xenografts; assay: 177Lu FOLR1 radioligand therapy in OVCAR3 xenograft model; assay type: in vivo, mouse
Protocol: Water and food were provided ad libitum. […] Tumor growth was monitored by caliper measurements.
OVCAR3 tumor bearing mice were used to study FOLR1-directed radioligand therapy (RLT) for treatment of ovarian cancer. Animals were administered a single dose of heterobiligand (vehicle control) or 111, 37, 18.5, 9.25, or 3.7 MBq [^177Lu]DOTA-labeled heterobiligand. Mice received the dose intravenously (i.v.) via the tail vein. To monitor the effect of the RLT, tumor size measurements were taken twice weekly and body weights were measured.
The engraftment was allowed to expand until palpable tumor sizes ranging in size from 218-384 mm^3 were detected. […] These observed effects were consistant with radiation overdosing. […] The best response was observed using 9.25 MBq Lu-177 Heterobiligand (compound #2809).
Single dose treatments at 18.5 MBq/nmol specific activity. OVCAR3 mouse model was used. 10^7 cell tumors were implanted in the mice one month before administration of ^177Lu-#6305. Five mice each were administered Cold #6305, 9.25 MBq Lu177-#6305, and 14.8 MBq Lu177-#6305, and two mice were administered 29.6 MBq Lu177-#6305. Tumor growth and body weight were then monitored.
Female NSG mice were implanted subcutaneously with OVCAR3 cells. Once tumors reached volumes of 200 mm^3, the animals were treated with 177-Lu 7327. Three treatment arms of 9.25 MBq, 14.8 MBq, and 29.6 MBq were studied.
Female NSG mice were implanted subcutaneously with human OVCAR3 (FOLR+) ovarian cancer cells. Once tumors reached volumes of 200 mm^3, the animals were treated with Indi ^177Lu-7327. One treatment arm of 74 MBq and a control group of 0 MBq were studied (FIGS. 41 and 38A). […] The second dose was administered 21 days following the first dose. Statistically significant differential between treated and control was reached 24 days post-injection (three days following the second dose) for the 74 MBq arm. P values (* for p≤0.05, ** for p≤0.01) were determined by ordinary one-way ANOVA with Tukey's multiple comparisons test.

[7] = mouse, in vivo
Protocol: At endpoint, mice were sacrificed and plasma and tissues (tumor, kidney, liver, lung, muscle) were collected. Plasma samples were assayed for urea and creatinine biomarkers indicative of nephrotoxicity. Tissue samples were fixed in 10% buffered formalin, transferred to 70% ethanol, and embedded in paraffin for immunohistochemistry.
The heterobiligand dosed in these studies is Folate-hshta-PEG3-Lys(MPBA)-Lys(DOTA) (Compound #2809; SEQ ID NO:6)) labeled with ^177Lu. Plasma samples taken from tumor-bearing mice (at each dose) were assayed for biomarkers indicative of nephrotoxicity. These samples were compared to plasma taken from normal mice. Elevated urea levels in plasma could indicate kidney damage. Endogenous urea is converted to ammonia and carbon dioxide by the addition of urease. Berthelot's reagent reacts with the dissolved ammonia. The resulting green coloration can be used to back-calculate the amount of urea present in the original plasma sample.
Mouse plasma samples (five mice each from the 0 MBq control group, 3.7 MBq group, and 9.25 MBq group) taken at endpoint and normal mouse plasma were evaluated in urea assays to gain information on renal function. […]
In order to understand the toxicity-limiting tissues and organs, plasma was collected from the therapy studies and analyzed for blood urea nitrogen (BUN) and creatinine. […]

Compound: C[C@H](O)[C@H]1NC(=O)[C@@H](CCC(=O)O)NC(=O)[C@@H](CCC(=O)O)NC(=O)[C@@H](Cc2ccc(O)cc2)NC(=O)[C@@H](CCCCN)NC(=O)[C@@H](NC(=O)[C@H](Cc2cn(CCOCCOCCOCCNC(=O)CC[C@H](NC(=O)c3ccc(NCc4cnc5nc(N)[nH]c(=O)c5n4)cc3)C(=O)O)nn2)NC(=O)CCOCCOCCOCCOCCOCCOCCOCCOCCOCCOCCNC(=O)CCOCCOCCOCCOCCOCCOCCOCCOCCOCCOCCNC(=O)CCCC[C@@H]2SC[C@@H]3NC(=O)N[C@@H]32)Cc2cn(nn2)CCCC[C@@H](C(N)=O)NC1=O [folate-kyeet heterobiligand]
- selectivity for FOLR1 (+) cells [1]: Virtually complete selectivity
- selectivity for FOLR1 (+) cells over FOLR1 (−) cells [2]: high selectivity for FOLR1 (+) cells

Compound: Cc1ccc(CCCC(=O)NCCCC[C@H](NC(=O)COCCOCCOCCNC(=O)[C@@H]2CCCCn3cc(nn3)C[C@H](NC(=O)CC[C@H](NC(=O)c3ccc(NCc4cnc5nc(N)[nH]c(=O)c5n4)cc3)C(=O)O)C(=O)N[C@H](Cc3c[nH]cn3)C(=O)N[C@H](CO)C(=O)N[C@H](Cc3c[nH]cn3)C(=O)N[C@H]([C@H](C)O)C(=O)N[C@H](C)C(=O)N2)C(=O)N[C@@H](CCCCNC(=O)CN2CCN(CC(=O)O)CCN(CC(=O)O)CCN(CC(=O)O)CC2)C(N)=O)cc1 [^68Ga-chelated compound #2809, metal not drawn] ({Pteroyl-γGlu}-[Pra][dH][dS][dH][dT][dA][Lys(N3)][AEEEA]K(Butanoyl(4-(4-MePh)))K(DOTA)-NH2; triazole 1-7)
- tissue uptake per volume at 4 h ([3]; 200 uCi, dose accumulation in the tumor): ~1.4 %ID/mL

Compound: C[C@H](O)[C@H]1NC(=O)[C@@H](Cc2cnc[nH]2)NC(=O)[C@@H](CO)NC(=O)[C@@H](Cc2cnc[nH]2)NC(=O)[C@@H](NC(=O)CC[C@H](NC(=O)c2ccc(NCc3cnc4nc(N)[nH]c(=O)c4n3)cc2)C(=O)O)Cc2cn(nn2)CCCC[C@@H](C(=O)NCC(=O)N[C@@H](Cc2ccccc2)C(=O)N[C@@H](CCCCNC(=O)CN2CCN(CC(=O)O)CCN(CC(=O)O)CCN(CC(=O)O)CC2)C(=O)O)NC(=O)[C@@H](C)NC1=O [Indi ^68Ga-7327, metal not drawn] ({Pteroyl-γGlu}-[Pra][dH][dS][dH][dT][dA][Lys(N3)]GFK(DOTA)-OH; triazole 1-7)
- kidney uptake [4]: significant reduction in kidney uptake
- tissue uptake per volume at 4 h ([3]; accumulation in the tumor): 1.55 %ID/mL

Compound: GI48-GA: albumin-binding domain, fragment of protein G from Streptococcus strain GI48 (SEQ ID NO:33) (LAEAKVLANRELDKYGVSDYYKNLINNAKTVEGVKALIDEILAA)
- Kd [5]: 1 nM

Compound: Cc1ccc(CCCC(=O)NCCCC[C@H](NC(=O)COCCOCCOCCNC(=O)[C@@H]2CCCCn3cc(nn3)C[C@H](NC(=O)CC[C@H](NC(=O)c3ccc(NCc4cnc5nc(N)[nH]c(=O)c5n4)cc3)C(=O)O)C(=O)N[C@H](Cc3c[nH]cn3)C(=O)N[C@H](CO)C(=O)N[C@H](Cc3c[nH]cn3)C(=O)N[C@H]([C@H](C)O)C(=O)N[C@H](C)C(=O)N2)C(=O)N[C@@H](CCCCNC(=O)CN2CCN(CC(=O)O)CCN(CC(=O)O)CCN(CC(=O)O)CC2)C(N)=O)cc1 [^177Lu-#2809, metal not drawn] ({Pteroyl-γGlu}-[Pra][dH][dS][dH][dT][dA][Lys(N3)][AEEEA]K(Butanoyl(4-(4-MePh)))K(DOTA)-NH2; triazole 1-7)
- Comments (deaths / survival) ([6]; ^177Lu dose 0 (peptide alone), 3 mice): Sacrificed on day 24
- Comments (deaths / survival) ([6]; ^177Lu dose 0.1 mCi (3.7 MBq), 2 mice): Sacrificed on day 24
- Comments (deaths / survival) ([6]; ^177Lu dose 0.25 mCi (9.25 MBq), 2 mice): Sacrificed on day 24
- Comments (deaths / survival) ([6]; ^177Lu dose 0.5 mCi (18.5 MBq), 2 mice, listed as DOTA-Heterobiligand Albumin binder conjugate): 1 mouse died on day 10 and 1 mouse died on day 13
- Comments (deaths / survival) ([6]; ^177Lu dose 1 mCi (37 MBq), 2 mice): 2 mice died on day 10
- Comments (deaths / survival) ([6]; ^177Lu dose 3 mCi (111 MBq), 3 mice, listed as DOTA-Heterobiligand Albumin binder conjugate): 1 mouse died on day 5 and 2 mice died on day 4
- BUN level relative to normal mice [7]: 1.5 times
